This passage reports protease stability score results from the NTF2 design screens of Basanta et al. (2020).

The nature of this series: protease stability score; higher = more stable; yeast display proteolysis, trypsin and chymotrypsin.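 Also: relative to predicted unfolded state with 0 unfolded-like and 1 meaning tenfold more protease.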
“SEEEESSHNAIKIWMETMETGNEELYLRLLDPHTRLDVNGKEFIGREVLKMFKKQIDHVKDVDVEHVEVQGDKVILNGRVRGDINGVERNTIEHLIVRKIDGRWRITEFSIR” yielded a protease stability score of 0.94.

Consider “KEREELLKTAADLMYHIWHTGDFEKLFKNVDPHVKINVGDKTYVGREQMHKIFKELKERLGFDVSSLEHRHLDMQGDFIFNELHVRLHQGDFEIQSWIHVIIYKVNGKWVVHEIKLHWD”, for which the protease stability score is 1.6.

“SEDEETLSEAIRLLLESLQTGDWRTFDKLIDPHARLVIDGKELHGRDLITTLLTHWRVEHFKIRHIEVQGEKVRIEGEVRGDIDGRKKDTHVRLTAEKINGRWLTQIVIIH”: the protease stability score was determined as 1.98.

The sequence “SEDEEWVSLLATLILRVLLTGDEDIWKKLADPNTIHDIGEKHFHGREEIARFWMELRIKSFHVRDMDVVGDFFHIRTHMDVSIDGKDIRTDVEIHILIINGRVKRQRFEFH” displayed a protease stability score of 0.404.

“TEDDRAFELSMRKWLESHRTGDEKTMHELLDPNARYHIGEFHLHGWKEADRLVREIRIHHVEDKHVEIQGDKIRIHTRVDITINGQKSSVELELVLVKVNGVWFVHSVILR” came in with a protease stability score of 1.8.

In turn, “DSEEEDARRALQEFLEHLATGNWEVLTKMMDPNTRLDVDGRDIHGWDEVKHHLKEMRVTIDHLHIERYIVQGEKVDIRGRVHILKEFDGKVLRHDRHVRIIFEKVDGRWIIHKIEHR” registered a protease stability score of 1.99.

In turn, “DEHEDNLQHLIHVMTELFITGDWKELRHLIDPNALLHINGKDVHGWHLALEHIVRWREEMGVKHSHVERIHLQGDKTHLHMREHFNGRTVELEIRIIFVNGRLESHEMRIRNN” gave a protease stability score of 0.822.

For “DEDKHVVEEFEKLMSHSMATGDEESLLRLADPNTRIVIGDKELHGMDLYLRWHVQHWRELGVDRVKVEVRVRDVRVVDGKVHVIGELIFRFDGRTQSHDVELEIVKINGKWVLKQINLK”, the protease stability score worked out at 2.25.

For “SEEEEDARRAFEMWFRVLMTGDEDQVDRLMDPHVRVDINGVDLHGRTTIRRLIHEEFNRADVRSFDVEHVDYQGDWVRLEVRLILVFNGKRLELKMELISRKINGRWILESQVVE”, the protease stability score was determined as 1.39.

“DSEEKDQRKASELTMRLLKTGNEDLMSHFFDPDTKVTIGDKEYHGREVLSHLLWEEKERIKGMRFEIKDLHVRYIGDKIRVESHVVLEINGVTLDTELIFHAEKVDGRWLSRSFEVRIT” showed a protease stability score of -0.023.

With “DELDHDIERNLRLWLEALYTGDFEFLLRLVDPNVRMHINGVNDHGWKFAEFLIRRADHSEMEIRIRHVHEVNGVLRMDGEVKFDIRQGDKSREKHIEVHMVLMKVNGQWFVKSFEFK”, the protease stability score was 1.47.

In the case of “TELEHKAIEVVEAVFRNLHTGDESLLQELFDPNTKSLIDGVSVVGMHEIYKTIKHLRIEFESIEVHHITNVNGVLLLDVTLRERYRINGVEDEKQTRVHIIVRKIDGRWHLEHVRFH”, the protease stability score was found to be 1.48.

On to “TEDERDVVKLLHLVSKLWLTGDEHILEHLADPSVRSDFDGVRLHGRRLLSYFLSELRIHHVEVRDVRVEYQGDKLIARSDTEVDLEIDGQRHRMDTRMILISRKWDGRWLIESISFEIQ”, for which the protease stability score worked out at 2.04.

Turning to “TEDEDRLTEMIEELLHALLTGDEKRKDELIDPHTKLDVNGRERHGMEEIKKNWRKLGVERIDLRVRERRIVNGVAHIRGDLHVGDKSMEVHIVFVKVDGRWIVHSFFIH”, the protease stability score is 1.31.

“DDKEQRVEELARLLYKMLLTGDWKTLEHLADPHVRMHQGEYNNVGMETVVEHWRRWYEHIRLDDMKITDLKVYGNKLHTDIRLDGEVNGKHRILESELLLIVVDGKMREIEIRII” displayed a protease stability score of 1.19.

Regarding “SETREDTRELVESFLNALRTGDEDLLRRLMDPHVKVYFNGREFHGRELATRVESHLRVHDIDVRDMRIIGDKVIIDLQVDGEWDGVRFHRETELHTQKVNGRWFIREIRIH”, the protease stability score came out at 2.23.

“DEEHRDSEEMTRKFLHNFITGNEHILEDLLDPHVRTDVDGREFIGWELAFKAFREFLERLGFDHIRHRDMKLHVVGNKVTSVITNNIQVGDKEHELRIILINRKIDGKWSVTEVRIHVK”: the protease stability score turned out to be 1.25.

Sequence “DEEYDIAEEILHLLVELILTGDEHEILRYADPNVRLIIGDKDIHGMDWVSRFNMHLRLDDMKWELKRAHVYNGVIDNRGHLVMHGEIDGRHDTIKRETRILINKVNGRWNIREILIH” displayed a protease stability score of 0.653.

In turn, “DEDEELALKMLEQWLRDLLTGDEETMVDLLDPNARLEIGDKENHGRDEVRKFWEELKKRFKNVRMEIEVHEIRVIGNKVHSINTLIIIIGDKRIKHHIHVHVVIFNGRVHSVHISIH” showed a protease stability score of 1.35.

As to “SEDEKHAHEFLEQFIRDWVTGNEESFELMLDPDMRLNINGRDFHGREEAVRHFSHRFKQLGVKHIELKEVDIDVFDGKVHSTYDGVERFNGQELRVRIEVEVLKINGQWYLHRVVVKIE”, the protease stability score amounted to 2.27.

Sequence “DHREEEQKRLTEEFITALKTGDEERWKELLDPNVKMHINGKDVVGREIAAKDLLDHWKNLGIKHIITHRIELQGEKVRIDTEERFNGRSVKTTMIIIVINGRLESFEFHVH” had a protease stability score of 0.653.

“SEDEIARHILHKMMTGDEDSFEELLDPNARLIVGNKHSHGRERVIEDWKRDLELAGFKHSEVKRIHFQGEKSHVHGHINVNGKEYRVLFILVIVNGRLKEVELHVTDEREEKYLHRTWE” registered a protease stability score of 0.007.

“HEDEEMSQRMLDELMRFSRTGDWQRSAELADPHVRIIIGDKHLHGMEHWSELLKRIDHSHFHLRHVDIFENHIRLQGELRLHINGVEHRHEVIIKAHKVDGQWILESVEIR” gave a protease stability score of 0.768.

The sequence “NDIEQIVREVLELIYHAIATGDWEHIYKNADPNVKYEQGDKEFHGREILSEMIVHIRLRDLELNRLHIVGDKVHIHGHFHMDINGRERLVKTEYIIRKVDGQWRLESLIIR” displayed a protease stability score of 1.23.

Take “DEIHEKVQLAAEIFEEIVRTGDEELFMRYMDPHVRLIDENEIYHGMDIWHKWLHERHEKLGAKHEEVKTRSLDLQGEKLRVEGDFVVNVNGRTFHHRLHLIYRKIDGQWRYEQISLE”: the protease stability score was found to be 0.853.

Sequence “TEDEHDARLALHILLELLRTGDEDSLSKYIDPNVRNEVNGQDLHGRNTMERLLKHWRIEEVRVKDVRVQGDKVIMHGREVIRQGDYVIDQDVHWLLVKVDGRWLLHSIHFR” returned a protease stability score of 0.918.

On to “DEDEEEYRRMHEILDDALETGDEHTISRMADPHVRNEINGVKLHGREIWFEYMKRLLDHLGVDNIKIKIRLRHIDRQGDKVLSETRLHVYFNGVEERRRTSQVWLKIDGQWHLHHVSVE”, for which the protease stability score turned out to be 0.869.

“DEEDHILLEIMRRVFESIMTGDEDLFRELADPNVRIRIGNKEMVGWEHIVKTLRKEDEDLGAKHKSFTLDDEDLIGNYAHVEGTLHIEFNGKDIHRHIRINVEVIDGRVKSIRMEDK”: the protease stability score was 0.936.

As to “TEEDELAHRFWELIRTSFLTGDEESLERLADPNVRLEIGDKELHGREQFSHIMREFVERFKNLRVRVEEERVVGDKAESIEDFHFNGQNLKVLTIVKKINGKWVIKSIVIKIE”, the protease stability score worked out at 1.7.

Consider “SENHRNLLEWARIALEALITGDWKMLLDLLDPNVRFIFNGVHLHGMEHVFHRMTREIKEIRIKFEVHDMRSIGEKVEMDTRRHVEVNGVETTIDTRVHVVVIDGVIHEIRIEHR”, for which the protease stability score is 1.1.

“TEEDHFLKRELEKYIHSILTGDEDSTQHMIDPHARVFWNGVELHGRDAITKIMREWRIRHVRIERFEVQGDKIESHSISHMEINGKKHDHIFRITSEKYDGRWVIRELSIE” showed a protease stability score of 1.51.

In turn, “SEEDHDRELWISLLKKEAETGDERQVRENLDPNVQLDVGDKTFHGREIVLDHIHEEWKRLGLDRIKLFVDSIRIQGDKVRLDGSLDVNGKEIRVNIFLRKINGRWHIEFIHID” registered a protease stability score of 0.666.

Consider “DEDVELFELIFKVMIELLETGNEELLRHLADPHTRVHINGVDFHGMEDWLKFLRHIRIEDIKIRHVSVVNGVMHAETETLMHVNGRDKRVDTRVTAIKINGRWVLKHVQYK”, for which the protease stability score was 2.51.

“DDEHEHYRRQTKLVEDLFLTGDWDKIFRLLDPHVRMEINGRQHIGRERVTTEFKQHIEDLGIDHVEIKRSHVQGEKMHLDGVIEFNGRKQSSELIIVIIDGVWHSIVVQLH”: the protease stability score is 1.09.

“HETEKLTKEYIREELEVLKTGDEKETRELLDPDVRIEQGEFSTHGWDYATHWLRTFTERVKGAQFEKKTIRVINGRVNIHMLMHFNGREERIDLISVKIDGRWLIKSVHIHIE” had a protease stability score of 0.208.

Regarding “SEDHEIARLAVEIETHSQLTGDEESMNHLLDPTTRININGRELHGREEAIEWMKRFMEQFDHVKVEVEDISIQGEKLIIRGRFSVIYDGRKVQDHTEVIIVKFNGRWHVKSVHIR”, the protease stability score was determined as 2.58.

Sequence “DEEEKDAIMLSEISTHLMSTGDEHETSHNADPNTRLEYGDFEFHGREEFIKIWVEQMEKVKGMTIRLHSIHVQGDKAVSHVKIHVNGVDFHIIYIAEKFNGRWQLRSSIVI” had a protease stability score of 1.06.

The sequence “DDWLEDTKRLLEEFRQAINTGDEELLKILFDPHVRMNIDGVELHGRSVLEHFLERYDVIKVRRHHITDLKFQGNYLIIHLKTDIQIDIGDKHYKEEREVEMVVEKVNGRWIIRLMTER” yielded a protease stability score of 1.4.

In the case of “DEFEKTAEELLRRLVKNMKTGNEDMISHLLDPNARLEVGEFEYHGREQLVRFLVHLRVDHVDLHHVEVQGDKLILDTRTDGTFNGRRRNIRETIIIRKVNGKWIIESYHVE”, the protease stability score is 1.46.

“HESEELAKHFSKIMDDLIRTGDEEHFDRLLDPNVKLDVNGRTIHGRERVSEIIHEKNKELGIDQIHVRKQDEHIIGDKLILHIEIIYGDKRIELIIITRKINGKWRIESVELREH”: the protease stability score came to 0.876.

For “DEEDERSKEAMEHFLENEITGDWKRLHELFDPNARMHINGREYHGREEVTNKFWEHNYRMGVKHVEVRDLEVINGRVHLHVEQDVGEFHIELEVVIKKVNGRWLIEETEIHVR”, the protease stability score worked out at 0.987.

On to “SEMENLAREALRIIFHNVLTGDEEEFIRMADPNVRFDINGVEYHGWKRVLQELQRFKGLRIHHIHLEDMDNQGDKIIIYSKLEVHYNGVHTELTVEFISEKVNGRWILRMVVFH”, for which the protease stability score stood at 2.47.

The sequence “DELEEVIQKVAEMWVRLYKTGNEEIIHKLADPDVRAVYNGVENIGMHRHVELLHRLLEEIRIHDIRINRIEVQGEKAHNDTQVHFIVGEKRETRETHIEIVVVNGVIKEVVIRIH” came in with a protease stability score of 0.629.

In turn, “SEDEESLKKFIELLFHSLHTGDWKDIHKNLDPHVRIEFNGQELHGREELIELIEELMKRFDHIHFRFRDVRIYGNKAVLETELELRVGDKSSRIDVTIIIEKVNGRWIIRRLHFK” showed a protease stability score of 2.48.

“SEEEKLAHEYVRHIIELLETGDEQNVQDLMDPNARSVMIIDGREIYTHGRDAFSHLLKLMGFDHSRLKDIKIYDGRVHSHIEVSVNGREVEVHLIVRKVDGRWVLQETRFHLH” came in with a protease stability score of 1.19.

With “SEDEEESEFAVRELSKIIKTGDPDRFHHLADPNMRFIYGDKREHGMESWVSHLHRLGIENVEVHIHDWSVFNGQVVIDGRINVNGREVNAEFVMRKIDGRWHITEVRER”, the protease stability score is 0.611.

Sequence “DENEDRIRHLLELHFHALETGDEKKTHDLFDPNTRVEVGDKTLHGRELVSKHVAEDLIKIKGLTVRIRDWNIVGDKVVVDSRVEFNGVRVETILVALKVDGRWLVKSIHIH” displayed a protease stability score of 0.42.
